Results as given in publication PMC12321133, “scFv intrabody targeting wildtype TDP-43 presents protective effects in a cellular model of TDP-43 proteinopathy” (PLOS One, 2025).
Each block holds one binder with its values, some of them ahead of it.

Biological target: T1, commercial recombinant human full-length wtTDP-43 (Abcam, ab224788) (human, UniProt Q13148 1-414)
T1 construct: TDP-43 (TARDBP), human, wild type, recombinant full length; also called recombinant wtTDP-43; source: bought: Abcam, ab224788
T1 sequence (Q13148 whole entry): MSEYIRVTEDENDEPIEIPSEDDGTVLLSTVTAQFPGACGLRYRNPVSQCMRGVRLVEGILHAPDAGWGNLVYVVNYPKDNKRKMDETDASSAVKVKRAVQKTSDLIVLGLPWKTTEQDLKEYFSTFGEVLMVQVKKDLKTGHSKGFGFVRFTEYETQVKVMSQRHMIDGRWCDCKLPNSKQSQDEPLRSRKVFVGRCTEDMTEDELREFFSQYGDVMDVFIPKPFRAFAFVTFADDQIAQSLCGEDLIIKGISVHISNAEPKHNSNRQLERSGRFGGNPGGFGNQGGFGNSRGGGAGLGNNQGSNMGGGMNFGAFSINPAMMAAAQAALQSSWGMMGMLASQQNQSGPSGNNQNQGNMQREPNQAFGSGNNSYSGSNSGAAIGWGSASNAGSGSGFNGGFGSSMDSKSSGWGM
Assay: ELISA; indirect ELISA: wells coated overnight at 4 °C with commercial human wtTDP-43 at 1 µg/mL in PBS; purified scFv at 1, 5 or 10 µg/mL, 1 h at RT; detected with HRP-conjugated anti-6xHis antibody, absorbance at 450 nm
Conditions: both partners purified

fold increase of the ELISA signal over the control scFv 13R4 at 5 µg/mL: 5 fold | fold increase of the ELISA signal over the control scFv 13R4 at 10 µg/mL: 3 fold
B1: scFv B1, purified (c-myc and 6xHis tags) (scFv)
scFv: MAEVQLVESGGSLVKPGGSLRLSCAASGFTFSNYDMNWVRQAPGKGLEWISDIDGSSRNIYYADFVKGRFTISRDNATNSLYLQMNSLRAEDTAVYYCVRSSYYDNGMDVWGRGTLVTVSSGGGGSGGGGSGGGGSQSVLTQPASVSGSPGQSITISCAGTSSDVGGYDGVSWYQQHPGKAPKLMIYYDSYRPSGVSNRFSGSKSGNTASLTISGLQAEDEADYYCSSYTYYSTRVFGGGTKLAVLG
notes: VH of scFv B1 as printed; linker of the HuscI library between VH and VL; VL of scFv B1; Selected from the human synthetic HuscI library; The scFv was moved as an NcoI-NotI fragment from pHEN-HuscI into pET-23NN, which adds c-myc and 6xHis at the 3' end; source: E. coli BL21(DE3)pLysS, pET-23NN vector, purified (Ni-NTA, dialysed in MilliQ water); not shown: c-myc, C-terminal, kept; His6, …

fold increase of the ELISA signal over the control scFv 13R4 at 5 µg/mL: 2 fold | fold increase of the ELISA signal over the control scFv 13R4 at 10 µg/mL: 2 fold
B2: scFv D7, purified (c-myc and 6xHis tags) (scFv)
scFv: MAEVQLVESGGSLVKPGGSLRLSCAASGFTFSNYYMNWVRQAPGKGLEWISDIYGSSRYISYADFVKGRFTISRDNATNSLYLQMNSLRAEDTAVYYCVRSSSNDGGGMDVWGRGTLVTVSSGGGGSGGGGSGGGGSQSVLTQPASVSGSPGQSITISCAGTSSDVGGNNYVSWYQQHPGKAPKLMIYYDSYRPSGVSNRFSGSKSGNTASLTISGLQAEDEADYYCSSYTYSSTRVFGGGTKLAVLG
notes: VH of scFv D7 as printed; linker of the HuscI library between VH and VL; VL of scFv D7; Selected from the human synthetic HuscI library; The scFv was moved as an NcoI-NotI fragment from pHEN-HuscI into pET-23NN, which adds c-myc and 6xHis at the 3' end; source: E. coli BL21(DE3)pLysS, pET-23NN vector, purified (Ni-NTA, dialysed in MilliQ water); not shown: c-myc, C-terminal, kept; His6, …
